Experimental data reported in patent US11413329B2, “Cancer cell trap” (BOARD OF REGENTS, THE UNIVERSITY OF TEXAS SYSTEM, priority 2012, dated 2022).

How the values were obtained:
[1] = system: PC3 prostate cancer cells; assay: PC3 prostate cancer cell recruitment to PEG hydrogel cancer cell traps; format: in vivo, mouse; conditions: C57 mice, released from subcutaneous PEG hydrogel, 24 hours after intravenous transplantation, fluorescence intensity, vs saline
Excerpt: Using near-infrared labeled PC3 prostate cell transplanted mice, the effect of hydrogel cancer cell traps in reducing cancer metastasis was studied. Specifically, PEG hydrogel was fabricated as following. Carboxyl-terminal PEG derivative polymer was synthesized using free radical polymerization. In brief, 4,4′-azobis(4-cyanovaleric acid) and various weight ratios (10:1-20:1) of 2-(2-Methoxyethoxy)ethyl methacrylate (MEO2MA) and oligo(ethylene glycol)monomethyl ether methacrylates (Mw:475;OEOMA475) were dissolved in ethanol to form a 20 wt % monomer solution. The solution was purged with nitrogen gas for 10 min and incubated at 60° C. for 6 h. The solvent was then removed with evaporation under vacuum and the crude polymers are re-dissolved in DI water and were purified with exhaust dialysis against DI water and then lyophilized. The low critical solution temperature (LCST) of the carboxyl-terminal PEG derivative polymers was determined using an UV-vis spectrometer. By changing the molar ratios of MEO2MA to OEOMA475, the carboxyl-terminal PEG derivative polymer with LCST of 32° C. was achieved and the polymer used to fabricate thermogelling bioactive hydrogel scaffold as described below. Incorporation of chemokines/cytokines to PEG hydrogel was achieved by physical adsorption. PEG hydrogel was mixed with vascular endothelial growth factor (VEGF) (100 ng/ml), erythropoietin (EPO) (100 international unit/ml), stromal derived factor-1α (SDF-1α) or saline (as control). The hydrogel samples were then injected into the subcutaneous cavity (under the skin) of C57 mice via 20 gauge needles. The mice were then transplanted intravenously with PC3 prostate cancer cells (5×10^6/mouse).

[2] = Release rates of chemokines/growth factors from cancer cell traps; conditions: for Release rates: optimal release rate from cancer cell traps; for Duration: release from cancer cell traps
Excerpt: The Experiments have been carried out to determine the release rates of various cancer stem cell chemokines/growth factors from cancer cell traps. The optimal release rates for each biomolecules are listed below.
Cancer cell trap size and dimension for human patients. All studies carried out thus far used mice cancer models. Since the cancer cells are recruited based on the chemokines gradient, localized concentrations, but not the systemic concentrations, are the determining factors. In other words, the effectiveness of the cancer cell traps are determined on the localized release rates as listed in the above table.

[3] = Release kinetics of cytokines/growth factors from MB scaffolds; conditions: gelatin MB scaffolds; for sustained release, share of total amounts per day: after the bolus; for bolus release: within the first 24 hours
Excerpt: Chemokine/growth factor loaded PLGA scaffolds were fabricated using our protein microbubble fabrication method. Briefly, 2-20% w/v protein solution with various chemokines was overlaid with nitrogen gas and sonicated using a probe sonicator (Ultrasonix, Bothell, Wash.) at 20 kHz for 10 seconds. Protein solution can be composed of single proteins or protein mixtures in different ratios. The potential protein candidates including albumin, collagen, gelatin, immunoglobulins, extracellular matrix proteins, fibronectin, etc. Protein microbubble solutions can be added to PLGA (3-15% w/v in 1,4 dioxane) in a 1:1 ratio and gently agitated. They were then quenched in liquid nitrogen and lyophilized for 72 hours at 0.01-0.1 mBar vacuum in a Freezone 12 lyophilizer (Labconco, Kansas City, Mo., USA).
The microbubble (MB) scaffolds were analyzed using Scanning Electron Microscopy. […] Protein distribution and internal architecture of the scaffolds was determined by staining histological sections with Coomassie Blue as described earlier. […] In contrast, Coomassie Blue staining of the gelatin MB scaffold sections indicated the presence of protein around the pores and throughout the matrix of the gelatin MB scaffolds (FIG. 12C). The compressive strength of the scaffolds was tested using an MTS Insight 2 machine fitted with a 500 N load cell. Samples (5 mm width and 5 mm thickness) were compressed to 10% strain at a deflection rate of 2 mm/min. The Young's modulus was calculated from the slope of the curve similar to our earlier publication. […] Finally, the release kinetics of cytokines/growth factors from MB scaffolds was determined using Oyster 800-conjugated EPO and Oyster 800-conjugated SDF.

Row | Substance | recruitment of PC3 prostate cancer cells to the implant sites [1] | Release rates [2] | Duration [2] [days] | sustained release, share of total amounts per day [3] | bolus release [3] [%]
1 | EPO: erythropoietin, released from cancer cell traps | increased the recruitment | 1.5-2.5 international international units/1 milliliter of hydrogel/particle cancer traps or 1 cubic centimeters scaffold traps/days | >30 |  | 
2 | Hepatocyte growth factor (HGF/SF): hepatocyte growth factor/scatter factor released from cancer cell traps |  | 15 ng/1 milliliter of ng/1 milliliter of hydrogel/particle cancer traps or 1 cubic centimeters scaffold traps/day | >28 |  | 
3 | Oyster 800-conjugated EPO: NIR dye conjugated EPO released from gelatin MB scaffolds |  |  |  | approximately 2% | 20
4 | Oyster 800-conjugated SDF: NIR dye conjugated SDF released from gelatin MB scaffolds |  |  |  | approximately 2% | 20
5 | RANTES/CCL5: chemokine released from cancer cell traps |  | 10 ng/1 milliliter of ng/1 milliliter of hydrogel/particle cancer traps or 1 cubic centimeters scaffold traps/day | >21 |  | 
6 | SDF-1α | increased the recruitment | 100 ng/1 milliliter of ng/1 milliliter of hydrogel/particle cancer traps or 1 cubic centimeters scaffold traps/day | >24 |  | 
7 | VEGF | increased the recruitment |  |  |  | 
